Our source for the reduction of live mDC1 in human PBMCs after 3 days with antibody, flow cytometry, reduction of live mDC2 in human PBMCs after 3 days with antibody, flow cytometry and reduction of pDCs in human PBMCs, flow cytometry values is US20130164214A1.

This experiment concerns the target HLA-DR (human). The experiment in a line: cell-based or functional assay.

B1: hL243γ4P (IMMU-114), humanized IgG4 anti-HLA-DR antibody (antibody, from a related filing, V domains shown)
VH: QVQLQQSGSELKKPGASVKVSCKASGFTFTNYGMNWVKQAPGQGLKWMGWINTYTREPTYADDFKGRFAFSLDTSVSTAYLQISSLKADDTAVYFCARDITAVVPTGFDYWGQGSLVTVSS
VL: DIQLTQSPSSLSASVGDRVTITCRASENIYSNLAWYRQKPGKAPKLLVFAASNLADGVPSRFSGSGSGTDYTFTISSLQPEDIATYYCQHFWTTPWAFGGGTKLQIKR
B1 registered a reduction of live mDC1 in human PBMCs after 3 days with antibody, flow cytometry of 59.2%; a reduction of live mDC2 in human PBMCs after 3 days with antibody, flow cytometry of 85%; a reduction of pDCs in human PBMCs, flow cytometry of 50%.
